Results: patent US20140004122A1, “METHODS FOR TREATING OR PREVENTING CHOLESTEROL RELATED DISORDERS” (AMGEN INC., priority 2011, published 2014)

What was measured:
[1] = test system: subjects with hypercholesterolemia on a statin; assay: 12 week dose-ranging study in combination with statin (Example 25); format: in vivo, human; conditions: preliminary
Procedure: Randomization will be stratified by screening LDL-C level (<130 mg/dL [3.4 mmol/L] vs≧130 mg/dL) and ezetimibe use at baseline (yes vs no). Randomization should occur within 5-10 days of the screening LDL-C evaluation used to determine eligibility. Study visits are every 2 weeks, irrespective whether the subject receives Q2W SC or Q4W treatment. […] The end-of-study visit and the last estimation of lipids is at week 12 for subjects on Q4W IP schedule and week 14 for subjects on Q2W IP schedule.
Males and females, ≧18 to ≦80 years of age, are eligible for this study. For enrollment, subjects must be on a statin, with or without ezetimibe, with stable dose(s) for at least 4 weeks before LDL-C screening and not requiring uptitration. Fasting LDL-C at screening must be ≧85 mg/dL (2.2 mmol/L). Enrollment of subjects with screening fasting LDL-C between ≧85 mg/dL (2.2 mmol/L) and <100 mg/dL (2.6 mmol/L) will be limited to no more than approximately 20% of total planned enrollment. Fasting triglycerides must be ≦400 mg/dL (4.5 mmol/L) as determined by the central laboratory analysis at screening.

[2] = test system: subjects with heterozygous familial hypercholesterolemia (HeFH); assay: 12 week study in heterozygous familial hypercholesterolemia (Example 22); format: in vivo, human; conditions: preliminary
Procedure: This study is a double-blind, randomized, stratified, placebo-controlled clinical trial evaluating the safety, tolerability, and efficacy of monocloncal antibody 21B12 in subjects having a diagnosis of HeFH. A total enrollment of 150 subjects is planned. […] Randomization will be stratified by screening LDL-C level (<130 mg/dL [3.4 mmol/L] vs≧130 mg/dL) and ezetimibe use at baseline (yes vs no). Randomization should occur within 5-10 days of the screening LDL-C evaluation used to determine eligibility. Monoclonal antibody, 21B12, and placebo will be blinded. Study visits are at weeks 2, 4, 8, and 12. […] The end-of-study (EOS) visit and the last evaluation of lipids is at week 12.
Males and females, ≧18 to ≦75 years of age, and with a diagnosis of heterozygous familial hypercholesterolemia by the diagnostic criteria of the Simon Broome Register Group (SBRG), are eligible for this study. For enrollment, subjects must be on an approved statin, with stable dose(s) for all allowed (eg, ezetimibe, bile-acid sequestering resin, stanols, or regulatory-approved and marketed niacin (eg, Niaspan or Niacor)) lipid-regulating drugs for at least 4 weeks before LDL-C screening and, in the opinion of the investigator, not requiring uptitration. Fasting LDL-C must be ≧100 mg/dL (2.6 mmol/L) and fasting triglycerides ≦400 mg/dL (4.5 mmol/L) by central laboratory at screening.

[3] = test system: human patient exhibiting a Cholesterol Related Disorder; assay: Treatment of cholesterol related disorders (Example 16); format: in vivo; conditions: therapeutically effective amount
Excerpt: At periodic times during the treatment, the patient is monitored to determine whether the symptoms of the disorder have subsided.

[4] = Pharmacokinetics in cynomolgus monkeys; format: in vivo, cynomolgus monkey; conditions: 0.5 mg/kg single SC
Procedure: Antibody concentrations in serum were determined using an enzyme-linked immunosorbent assay (ELISA) with an assay range of 34.4 to 3000 ng/mL (34.4 ng/mL being the lower limit of quantitation [LLOQ]).
Non-compartmental analysis (NCA) was performed on the serum concentrations using the pre-determined nominal time points for each subject using Watson® LIMS, version 7.0.0.01 (Thermo Scientific, Waltham, Mass.). Data points for estimating the terminal elimination rate constants and half-lives were chosen by visual inspection of the concentration-time profile and best linear fit (typically from 360 h until the antibody concentrations dropped below the lower limit of quantitation).
NCA parameters reported include: terminal half-life (t1/2,z), the maximum serum concentration (Cmax), area under the serum concentration-time curve from time zero to infinity (AUC0-inf), and apparent serum clearance (CL/F). AUC0-inf was calculated using the linear log-linear trapezoidal method. All parameters were all reported to three significant figures, except for half-life which was reported to two significant figures.

human PCSK9 = human PCSK9 (Homo sapiens, UniProt Q8NBP7); assay: BIAcore affinity analysis; format: binding; conditions: pH 7.4; read-out: KD hPCSK9
Chain of human PCSK9 (Q8NBP7 153-692): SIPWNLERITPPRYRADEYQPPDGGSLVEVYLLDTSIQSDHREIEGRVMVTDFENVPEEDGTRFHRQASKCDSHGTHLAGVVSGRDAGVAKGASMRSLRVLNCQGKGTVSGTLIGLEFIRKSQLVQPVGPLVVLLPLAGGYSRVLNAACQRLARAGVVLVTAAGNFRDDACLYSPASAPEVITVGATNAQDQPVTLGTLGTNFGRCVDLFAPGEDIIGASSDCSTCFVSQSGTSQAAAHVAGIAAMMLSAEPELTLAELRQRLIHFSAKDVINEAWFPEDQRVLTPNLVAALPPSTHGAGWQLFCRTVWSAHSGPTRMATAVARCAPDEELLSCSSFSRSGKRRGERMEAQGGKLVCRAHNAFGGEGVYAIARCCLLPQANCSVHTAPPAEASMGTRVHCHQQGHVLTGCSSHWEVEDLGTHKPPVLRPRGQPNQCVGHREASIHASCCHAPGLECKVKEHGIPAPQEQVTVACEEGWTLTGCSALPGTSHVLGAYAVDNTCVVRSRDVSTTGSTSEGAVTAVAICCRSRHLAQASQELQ
Procedure: Briefly, the surface plasmon resonance experiments were performed using Biacore 2000 optical biosensors (Biacore, GE Healthcare, Piscataway, N.J.). […] The concentration of PCSK9 protein was varied at 2 fold intervals (the analyte) and was injected over the immobilized antibody surface (at a flow rate of 100 μl/min for 1.5 minutes). Fresh HBS-P buffer (pH 7.4, 0.01 M Hepes, 0.15 M NaCl, 0.005% surfactant P-20, Biacore) supplemented with 0.01% BSA was used as binding buffer.
The binding signal obtained was proportional to the free PCSK9 in solution.
Antibody binding kinetic parameters including ka (association rate constant), kd (dissociation rate constant), and KD (dissociation equilibrium constant) were determined using the BIA evaluation 3.1 computer program (BIAcore, Inc. Piscataway, N.J.).

[5] = 70 mg (Q2W), end of the dosing interval
[6] = 105 mg (Q2W), end of the dosing interval
[7] = 280 mg (Q2W as printed), end of the dosing interval
[8] = 350 mg (Q2W as printed), end of the dosing interval
[9] = 350 mg Q4W SC, end of the dosing interval

B1: 21B12: human anti-PCSK9 monoclonal antibody; light/heavy variable region SEQ ID NO 23/49 (antibody, listed as Homo sapiens, V domains shown)
VH: QVQLVQSGAEVKKPGASVKVSCKASGYTLTSYGISWVRQAPGQGLEWMGWVSFYNGNTNYAQKLQGRGTMTTDPSTSTAYMELRSLRSDDTAVYYCARGYGMDVWGQGTTVTVSS
VL: QSALTQPASVSGSPGQSITISCTGTSSDVGGYNSVSWYQQHPGKAPKLMIYEVSNRPSGVSNRFSGSKSGNTASLTISGLQAEDEADYYCNSYTSTSMVFGGGTKLTVL
For B1, the “LS mean percent increase from baseline in HDL-C” value (from here on “LS mean percent increase”) [1, 5] was 21.17%, the “LS mean percent reduction from baseline in LDL-C” value [1, 5] was 39.22% and the “LS mean percent reduction from baseline in Lp(a)” value [1, 5] was 21.17%. For the same molecule, the “LS mean percent reduction from baseline in VLDL-C” value [1, 5] was 14.84%, the “LS mean percent reduction from baseline in non-HDL-C” value [1, 5] was 36.20% and the “LS mean percent reduction from baseline in total cholesterol” value [1, 5] was 26.33%. For the same molecule, the “LS mean percent reduction from baseline in triglycerides” value [1, 5] was 7.20%, the “LS mean percent increase” value [1, 6] was 6.80% and the “LS mean percent reduction from baseline in LDL-C” value [1, 6] was 56.38%. The “LS mean percent reduction from baseline in Lp(a)” value [1, 6] was 33.41%, the “LS mean percent reduction from baseline in VLDL-C” value [1, 6] was 12.75% and the “LS mean percent reduction from baseline in non-HDL-C” value [1, 6] was 51.20%. The “LS mean percent reduction from baseline in total cholesterol” value [1, 6] was 36.91%, the “LS mean percent reduction from baseline in triglycerides” value [1, 6] was 5.65% and the “LS mean percent increase” value ([1]; 140 mg (Q2W)) was 8.43%. The “LS mean percent reduction from baseline in LDL-C” value ([1]; 140 mg (Q2W)) was 68.76%, the “LS mean percent reduction from baseline in Lp(a)” value ([1]; 140 mg (Q2W)) was 33.87% and the “LS mean percent reduction from baseline in VLDL-C” value ([1]; 140 mg (Q2W)) was 45.14%. For the same molecule, the “LS mean percent reduction from baseline in non-HDL-C” value ([1]; 140 mg (Q2W)) was 64.61%, the “LS mean percent reduction from baseline in total cholesterol” value ([1]; 140 mg (Q2W)) was 46.17% and the “LS mean percent reduction from baseline in triglycerides” value ([1]; 140 mg (Q2W)) was 17.60%. The “LS mean percent increase” value [1, 7] was 2.17%, the “LS mean percent reduction from baseline in Lp(a)” value [1, 7] was 22.54% and the “LS mean percent reduction from baseline in VLDL-C” value [1, 7] was 18.12%. The “LS mean percent reduction from baseline in non-HDL-C” value [1, 7] was 38.89%, the “LS mean percent reduction from baseline in total cholesterol” value [1, 7] was 28.08% and the “LS mean percent reduction from baseline in triglycerides” value [1, 7] was 6.75%. The “LS mean percent reduction from baseline in LDL-C” value ([1]; 280 mg (Q4W), end of the dosing interval) was 42.62%, the “LS mean percent increase” value [1, 8] was 6.92% and the “LS mean percent reduction from baseline in Lp(a)” value [1, 8] was 29.43%. For the same molecule, the “LS mean percent reduction from baseline in VLDL-C” value [1, 8] was 20.89%, the “LS mean percent reduction from baseline in non-HDL-C” value [1, 8] was 50.83% and the “LS mean percent reduction from baseline in total cholesterol” value [1, 8] was 36.04%. For the same molecule, the “LS mean percent reduction from baseline in triglycerides” value [1, 8] was 9.17%, the “LS mean percent reduction from baseline in LDL-C” value ([1]; 350 mg, end of the dosing interval) was 56.84% and the “LS mean percent increase” value ([1]; 420 mg (Q2W as printed)) was 7.42%. The “LS mean percent reduction from baseline in Lp(a)” value ([1]; 420 mg (Q2W as printed)) was 23.29%, the “LS mean percent reduction from baseline in VLDL-C” value ([1]; 420 mg (Q2W as printed)) was 28.66% and the “LS mean percent reduction from baseline in non-HDL-C” value ([1]; 420 mg (Q2W as printed)) was 48.54%. For the same molecule, the “LS mean percent reduction from baseline in total cholesterol” value ([1]; 420 mg (Q2W as printed)) was 42.76%, the “LS mean percent reduction from baseline in triglycerides” value ([1]; 420 mg (Q2W as printed)) was 11.13% and the “LS mean percent reduction from baseline in LDL-C” value ([1]; 420 mg) was 52.19%. The “LS mean percent increase” value [2, 9] was 15.39%, the “LS mean percent reduction from baseline in LDL-C” value [2, 9] was 38.46% and the “LS mean percent reduction from baseline in Lp(a)” value [2, 9] was 21.69%. The “LS mean percent reduction from baseline in VLDL-C” value [2, 9] was 17.16%, the “LS mean percent reduction from baseline in non-HDL cholesterol” value [2, 9] was 36.16% and the “LS mean percent reduction from baseline in total cholesterol” value [2, 9] was 24.82%. For the same molecule, the “LS mean percent reduction from baseline in triglycerides” value [2, 9] was 17.24%, the “LS mean percent increase” value ([2]; 420 mg Q4W SC) was 6.77% and the “LS mean percent reduction from baseline in LDL-C” value ([2]; 420 mg Q4W SC) was 45.68%. The “LS mean percent reduction from baseline in Lp(a)” value ([2]; 420 mg Q4W SC) was 28.23%, the “LS mean percent reduction from baseline in VLDL-C” value ([2]; 420 mg Q4W SC) was 18.49% and the “LS mean percent reduction from baseline in non-HDL cholesterol” value ([2]; 420 mg Q4W SC) was 41.81%. The “LS mean percent reduction from baseline in total cholesterol” value ([2]; 420 mg Q4W SC) was 29.45%, the “LS mean percent reduction from baseline in triglycerides” value ([2]; 420 mg Q4W SC) was 4.56% and the “serum cholesterol levels vs patients that are not treated” value [3] was “reduced serum cholesterol levels”. The half-life [4] was about 40 h and the Kd (human PCSK9) was 0.19 nM.
